Test results reported in US6506587B2, “TRF 1 binding protein, methods of use thereof” (The Rockefeller University, priority 1998, dated 2003).
“Also recorded” adds a separate entry of the source.

Assays:
tankyrase = target: T1, tankyrase (Homo sapiens, UniProt O95271); test: PARP assay with baculovirus-derived tankyrase and [32P]NAD+; format: biochemical; settings: 1 mM 3AB; 4 μg tankyrase, without or with 4 μg TRF1; 1.3 μM [32P]NAD+
T1 construct: [His]6 (pFastBac HTb) (N); made in house; host or cells: SF21 insect cells (baculovirus)
T1 sequence (O95271 1-1327): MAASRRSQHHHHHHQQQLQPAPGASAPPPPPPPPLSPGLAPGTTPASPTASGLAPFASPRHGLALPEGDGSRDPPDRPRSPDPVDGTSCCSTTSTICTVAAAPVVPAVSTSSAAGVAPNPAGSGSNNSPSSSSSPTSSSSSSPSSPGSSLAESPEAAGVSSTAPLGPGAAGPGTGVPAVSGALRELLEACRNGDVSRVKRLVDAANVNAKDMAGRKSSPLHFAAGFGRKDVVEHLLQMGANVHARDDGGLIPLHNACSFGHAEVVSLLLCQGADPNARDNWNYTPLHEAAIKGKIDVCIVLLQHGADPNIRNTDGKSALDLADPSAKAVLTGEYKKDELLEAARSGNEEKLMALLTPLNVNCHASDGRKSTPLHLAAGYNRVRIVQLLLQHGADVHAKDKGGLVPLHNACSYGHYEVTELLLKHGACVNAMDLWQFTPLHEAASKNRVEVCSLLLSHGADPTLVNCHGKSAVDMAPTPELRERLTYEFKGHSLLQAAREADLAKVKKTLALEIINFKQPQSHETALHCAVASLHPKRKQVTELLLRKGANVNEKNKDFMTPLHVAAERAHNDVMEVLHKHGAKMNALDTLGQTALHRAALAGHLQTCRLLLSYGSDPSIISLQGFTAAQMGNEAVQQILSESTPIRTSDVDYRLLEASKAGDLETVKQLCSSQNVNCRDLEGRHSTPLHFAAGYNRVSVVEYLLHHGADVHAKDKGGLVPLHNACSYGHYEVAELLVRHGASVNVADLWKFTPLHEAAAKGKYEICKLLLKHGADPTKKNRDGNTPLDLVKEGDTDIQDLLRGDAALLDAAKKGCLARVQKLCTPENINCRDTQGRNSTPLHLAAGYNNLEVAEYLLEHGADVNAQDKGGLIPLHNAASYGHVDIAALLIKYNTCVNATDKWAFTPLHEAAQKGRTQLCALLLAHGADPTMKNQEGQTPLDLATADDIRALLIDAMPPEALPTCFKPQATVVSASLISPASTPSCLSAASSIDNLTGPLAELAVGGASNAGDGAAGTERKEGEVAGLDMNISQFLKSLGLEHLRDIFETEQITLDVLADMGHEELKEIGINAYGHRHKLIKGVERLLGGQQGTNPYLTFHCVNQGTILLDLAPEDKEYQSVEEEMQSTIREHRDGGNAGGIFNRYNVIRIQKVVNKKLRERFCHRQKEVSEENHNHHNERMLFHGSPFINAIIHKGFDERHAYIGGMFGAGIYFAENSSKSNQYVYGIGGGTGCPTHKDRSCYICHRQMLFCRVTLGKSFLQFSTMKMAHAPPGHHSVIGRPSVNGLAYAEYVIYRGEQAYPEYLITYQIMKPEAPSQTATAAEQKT
Experimental: Reactions containing 4 μg tankyrase (+), without (−) or with (+) 4 μg TRF 1, and 1.3 μM [^32P]NAD^+ were incubated without (−) or with (+) 1 mM 3AB and processed as in FIG. 9A.
PARP assays were performed with baculovirus-derived tankyrase essentially as described in [Simonin et al. 268:8529 (1993)] but without addition of DNA. To make baculovirus-derived protein, an N-terminally [His]6-tagged fusion protein of human tankyrase was generated in the expression vector pFastBac HTb (Gibco BRL, Grand Island) and used to generate a recombinant plasmid in DH10Bac E. coli. The recombinant DNA was used to transfect SF21 insect cells and recombinant virus was isolated and amplified. Protein was purified as described for baculovirus-derived TRF1 [Bianchi et al., EMBO J. 16:1785 (1997)]. Samples containing tankyrase (0-4 μg) and TRF1 (0-4 μg) [Bianchi et al., EMBO J. 16:1785 (1997)] were incubated for 30 minutes at 25° C. in 0.1 ml of assay buffer containing 50 mM Tris-HCl (pH 8.0), 4 mM Mg Cl2, 0.2 mM dithiothreitol (DTT), 1.3 μM [^32P]NAD+ (4 μCi) and varying concentrations of unlabeled NAD+ (0-1 mM). Reactions were stopped by the addition of 20% trichloroacetic acid (TCA). Acid-insoluble proteins were collected by centrifugation, rinsed in 5% TCA, suspended in Laemmli loading buffer, and fractionated on SDS-PAGE. Proteins were visualized by Coomassie-Blue stain and autoradiography. […]

TRF1 [1] = test: Gel-shift assay for TTAGGG repeat binding activity of TRF1; format: biochemical
Experimental: The Gel-shift assay for the TTAGGG repeat binding activity of TRF1 used a duplex [TTAGGG]12 DNA as a probe. Binding reactions contained the components indicated above the lanes. Tankyrase was varied from 2.5 to 200 ng per 20 μl incubation in three-fold dilution steps (triangles). TRF1 was either present at 13 ng (+) or varied from 120 to 13 ng in three-fold dilution steps (triangle). NAD^+ was at 0 (−) or 0.2 mM (+). The asterisks indicate the position of TRF1-containing complexes as determined by antibody super-shift experiments.
Gel-shift assays were performed using an end-labeled 142 bp Hindlll-Asp718 fragment from plasmid pTH12 [Z. Zhong, et al, Mol. Cell. Biol. 12:4834 (1992)] containing 12 tandem TTAGGG repeats. Baculovirus-derived TRF1 (13 to 120 ng) [Bianchi et al. EMBO J. 16:1785 (1997)] was incubated for 30 minutes at room temperature in a 20 μl reaction containing 20 mM Hepes-KOH (pH 7.9), 100 mM KCL, 0.5 mM DTT, 5% glycerol, 0.1% NP40, 100 ng sheared E. coli DNA, 100 ng β-casein, and 1 ng of labeled probe. In some cases, reactions were supplemented with NAD^+ (0.2 mM) and baculovirus-derived human tankyrase (2.5 to 200 ng). Samples were fractionated on a 0.7% agarose gel run in 0.1× TBE (8.9 mM Tris-base, 8.9 mM Boric acid, and 0.2 mM EDTA) at 130 volts for 1 hour at room temperature. Gels were dried onto Whatman DE81 paper and autoradiographed.

TRF1 [2] = target: T2, TRF1 (Homo sapiens, UniProt P54274); test: Yeast two-hybrid analysis, β-galactosidase assay; format: cell-based; settings: with amino-terminal acidic domain of TRF1 (LexAd68-C); 12.0 units with GAD lacking tankyrase sequences; average of three transformations
T2 construct: expressed in transfected cells; host or cells: yeast strain L40
Experimental: (§1) Proteins were immunoprecipitated with an unrelated rabbit serum as a control (C) (lanes 1 and 4), anti-tankyrase antibodies (tankyrase) (lanes 2 and 6) or anti-TRF1 antibody 371 (TRF1) (lanes 3 and 5). Samples were processed, suspended in Laemmli buffer and divided in half. One set was not heated (left panel) and the other was heated at 100° C. for 5 min (right panel). Proteins were fractionated on 10% SDS-PAGE, transferred to nitrocellulose and probed with anti-TRF1 antibody 371 (left panel) or anti-tankyrase antibodies (right panel). […] The values represent an average of three independent transformations. Values<0.01 are indicated by 0.
(§2) TR1L-4 and TR1L-12 were isolated from a human liver two-hybrid cDNA library (Clontech) created in pGad10. The library was screened with human full length TRF1 cDNA fused to LexA (LexA-TRF1) [Bianchi et al., EMBO J., 16:1785-1794 (1997)] in the yeast strain L40 as described [Hollenberg et al., Mol. Cell Biol., 15:3813-3822 (1995)]. Two-hybrid analysis was performed as described by Bianchi et al. [EMBO J., 16:1785-1794 (1997)]. β-galactosidase assays for the two-hybrid analysis was performed as described by Bianchi et al. [EMBO J., 16:1785-1794 (1997)].
T2 sequence (P54274 1-67): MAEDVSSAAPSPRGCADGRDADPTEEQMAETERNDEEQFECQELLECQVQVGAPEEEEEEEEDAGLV

TRF1 [3] = target: T3, TRF1 (Homo sapiens, UniProt P54274); test: Yeast two-hybrid analysis, β-galactosidase assay; format: cell-based; settings: ΔN66-LexA (deletion of the acidic domain of TRF1)
T3 construct: expressed in transfected cells; host or cells: yeast strain L40
T3 sequence (P54274 67-439): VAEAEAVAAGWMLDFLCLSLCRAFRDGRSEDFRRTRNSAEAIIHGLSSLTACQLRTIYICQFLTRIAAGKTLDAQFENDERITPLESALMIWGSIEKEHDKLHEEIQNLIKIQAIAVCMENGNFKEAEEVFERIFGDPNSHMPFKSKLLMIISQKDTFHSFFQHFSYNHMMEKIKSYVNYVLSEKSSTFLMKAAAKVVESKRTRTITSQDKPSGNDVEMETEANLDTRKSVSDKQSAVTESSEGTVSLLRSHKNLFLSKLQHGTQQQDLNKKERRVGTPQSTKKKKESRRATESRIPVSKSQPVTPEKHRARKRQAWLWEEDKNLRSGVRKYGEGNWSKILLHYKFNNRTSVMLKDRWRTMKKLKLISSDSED
Experimental: as §1, §2

In the case of `NC(=O)c1cccc(N)c1` [3AB, 3-aminobenzamide], the “Modification (ADP-ribosylation) of TRF1 and tankyrase by tankyrase” value (tankyrase) is reported as “strongly inhibited; also recorded: inhibited”.

B1: tankyrase: human TRF1-binding protein of SEQ ID NO:2 with ANK repeats, SAM motif and PARP-related domain; recombinant, baculovirus-derived (protein)
chain: MAASRRSQHHHHHHQQQLQPAPGASAPPPPPPPPLSPGLAPGTTPASPTASGLAPFASPRHGLALPEGDGSRDPPDRPRSPDPVDGTSCCSTTSTICTVAAAPVVPAVSTSSAAGVAPNPAGSGSNNSPSSSSSPTSSSSSSPSSPGSSLAESPEAAGVSSTAPLGPGAAGPGTGVPAVSGALRELLEACRNGDVSRVKRLVDAANVNAKDMAGRKSSPLHFAAGFGRKDVVEHLLQMGANVHARDDGGLIPLHNACSFGHAEVVSLLLCQGADPNARDNWNYTPLHEAAIKGKIDVCIVLLQHGADPNIRNTDGKSALDLADPSAKAVLTGEYKKDELLEAARSGNEEKLMALLTPLNVNCHASDGRKSTPLHLAAGYNRVRIVQLLLQHGADVHAKDKGGLVPLHNACSYGHYEVTELLLKHGACVNAMDLWQFTPLHEAASKNRVEVCSLLLSHGADPTLVNCHGKSAVDMAPTPELRERLTYEFKGHSLLQAAREADLAKVKKTLALEIINFKQPQSHETALHCAVASLHPKRKQVTELLLRKGANVNEKNKDFMTPLHVAAERAHNDVMEVLHKHGAKMNALDTLGQTALHRAALAGHLQTCRLLLSYGSDPSIISLQGFTAAQMGNEAVQQILSESTPIRTSDVDYRLLEASKAGDLETVKQLCSSQNVNCRDLEGRHSTPLHFAAGYNRVSVVEYLLHHGADVHAKDKGGLVPLHNACSYGHYEVAELLVRHGASVNVADLWKFTPLHEAAAKGKYEICKLLLKHGADPTKKNRDGNTPLDLVKEGDTDIQDLLKGDAALLDAAKKGCLARVQKLCTPENINCRDTQGRNSTPLHLAAGYNNLEVAEYLLEHGADVNAQDKGGLIPLHNAASYGHVDIAALLIKYNTCVNATDKWAFTPLHEAAQKGRTQLCALLLAHGADPTMKNQEGQTPLDLATADDIRALLIDAMPPEALPTCFKPQATVVSASLISPASTPSCLSAASSIDNLTGPLAELAVGGASNAGDGAAGTERKEGEVAGLDMNISQFLKSLGLEHLRDIFETEQITLDVLADMGHEELKEIGINAYGHRHKLIKGVERLLGGQQGTNPYLTFHCVNQGTILLDLAPEDKEYQSVEEEMQSTIREHRDGGNAGGIFNRYNVIRIQKVVNKKLRERFCHRQKEVSEENHNHHNERMLFHGSPFINAIIHKGFDERHAYIGGMFGAGIYFAENSSKSNQYVYGIGGGTGCPTHKDRSCYICHRQMLFCRVTLGKSFLQFSTMKMAHAPPGHHSVIGRPSVNGLAYAEYVIYRGEQAYPEYLITYQIMKPEAPSQTATAAEQKT
In the case of B1, the “TRF1 DNA binding activity on [TTAGGG]12 probe” value (“TRF1 DNA binding activity” below) (TRF1 [1]; NAD+ included (0.2 mM), tankyrase 2.5 to 200 ng per 20 μl, TRF1 13 ng) is reported as “drastic reduction”, the “TRF1 DNA binding activity” value (TRF1 [1]; NAD+ included (0.2 mM), tankyrase 2.5 to 200 ng per 20 μl, TRF1 13 ng, listed as Tankyrase) is reported as “inhibition” and the “TRF1 DNA binding activity” value (TRF1 [1]; absence of NAD+, effect also seen with total insect cell protein (non-specific)) is reported as “slight stimulation”.

B2: GAD-tankyrase: 10-ANK repeat domain of TR1L-12 (ANK repeats 9-19) fused to the GAL4 activation domain (protein)
chain: FTPLHEAASKNRVEVCSLLLSHGADPTLVNCHGKSAVDMAPTPELRERLTYEFKGHSLLQAAREADLAKVKKTLALEIINFKQPQSHETALHCAVASLHPKRKQVTELLLRKGANVNEKNKDFMTPLHVAAERAHNDVMEVLHKHGAKMNALDTLGQTALHRAALAGHLQTCRLLLSYGSDPSIISLQGFTAAQMGNEAVQQILSESTPIRTSDVDYRLLEASKAGDLETVKQLCSSQNVNCRDLEGRHSTPLHFAAGYNRVSVVEYLLHHGADVHAKDKGGLVPLHNACSYGHYEVAELLVRHGASVNVADLWKFTPLHEAAAKGKYEICKLLLKHGADPTKKNRDGNTPLDLVKEGDTDI
modifications: left off: large carriers
With B2 the “β-galactosidase levels (lacZ reporter activation)” value (TRF1 [2]) was 50.4 units and the “Interaction with TRF1 lacking the acidic domain” value (TRF1 [3]) was “abolished”.
